In this assay the target is T1, Biotinylated human TNFR2 protein (human, UniProt P20333-1 23-257, biotin (commercial biotinylation kit)).
T1 chain: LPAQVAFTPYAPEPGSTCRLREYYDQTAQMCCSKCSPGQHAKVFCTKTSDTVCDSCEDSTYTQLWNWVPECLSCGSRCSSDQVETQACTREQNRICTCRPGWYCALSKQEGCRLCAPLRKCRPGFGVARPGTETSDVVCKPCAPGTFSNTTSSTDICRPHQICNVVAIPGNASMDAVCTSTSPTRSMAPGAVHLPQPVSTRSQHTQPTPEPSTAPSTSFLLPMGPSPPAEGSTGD
Briefly: BLI. For orientation: In BLI a coated tip is dipped into the sample, and binding shifts an interference pattern.

B1: human immunodeficiency virus 1 (HIV-1) (group M, subtype B, Isolate MN) gp120 Protein (natural protein)
chain: not shown
In general, koff refers to a measure of how fast the partners let go of each other. B1: the koff worked out at 0.00623 s⁻¹.

These data come from article PMC13137973 (2026).
